This passage reports stoichiometry N and Kd results from publication PMC4506495.

Series [1] has as its target Magnetospirillum gryphiswaldense MSR-1 Fur C9L/M14L/M16V-triple mutant (Magnetospirillum gryphiswaldense MSR-1). Nature of the series: crystal structure; Fur-Mn2+ with the 25-bp feoAB1 operator dsDNA (three base-pair mutations), 2.6 Å (SeMet form 2.82 Å).
Series [2] shares this target. Nature of the series: crystal structure; holo-Fur with 1 mM MnCl2, 1.9 Å; 10% PEG3000, 0.1 M CHES pH 9.0.
The target of series [3] is Magnetospirillum gryphiswaldense MSR-1 ferric uptake regulator (Fur), wild type (Magnetospirillum gryphiswaldense MSR-1). The experiment in a line: AUC; analytical ultracentrifugation of apo-Fur in solution.
Series [4] shares this target. The experiment in a line: SEC; size-exclusion chromatography of apo-Fur in solution.
The target is the same in series [5]. The experiment in a line: crystal structure; apo-Fur without transition metal ions, 1.55 Å; crystals from (NH4)2SO4, 0.1 M sodium citrate pH 5.5.
Series [6] addresses T1, MgFur E108A/H125A (metal site 2 mutant) E108A;H125A (Magnetospirillum gryphiswaldense MSR-1) (UniProt V6F4Q0).
T1 sequence: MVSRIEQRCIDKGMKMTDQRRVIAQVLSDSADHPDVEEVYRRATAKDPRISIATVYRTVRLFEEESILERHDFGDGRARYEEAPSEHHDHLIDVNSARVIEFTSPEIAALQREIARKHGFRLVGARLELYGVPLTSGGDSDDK
The experiment in a line: SPR. The conditions noted are these: 1 mM Mn2+, SPR: 20 mM Tris-HCl pH 8.0, 150 mM NaCl, 1 mM MnCl2, 0.005% Tween20, 25 C, EMSA: 40 mM HEPES pH 7.0, 125 mM NaCl, 2 mM FeSO4/MnCl2/EDTA, footprinting: ….

In series [7] the target is T2, MgFur WT (Magnetospirillum gryphiswaldense MSR-1) (UniProt V6F4Q0).
T2 sequence: T1 sequence with A108E, A125H
Nature of the series: SPR. The conditions noted are these: 1 mM Mn2+, SPR: 20 mM Tris-HCl pH 8.0, 150 mM NaCl, 1 mM MnCl2, 0.005% Tween20, 25 C, EMSA: 40 mM HEPES pH 7.0, 125 mM NaCl, 2 mM FeSO4/MnCl2/EDTA, footprinting: …. A general note: In EMSA bound probe runs differently from free probe, usually more slowly.

The target in series [8] is T3, MgFur K15A K15A (Magnetospirillum gryphiswaldense MSR-1) (UniProt V6F4Q0).
T3 sequence: T1 sequence with K15A, A108E, A125H
The experiment in a line: SPR. The conditions noted are these: 1 mM Mn2+, SPR: 20 mM Tris-HCl pH 8.0, 150 mM NaCl, 1 mM MnCl2, 0.005% Tween20, 25 C, EMSA: 40 mM HEPES pH 7.0, 125 mM NaCl, 2 mM FeSO4/MnCl2/EDTA, footprinting: ….

Changes are numbered by the printed parent chain.

For the substance “Magnetospirillum gryphiswaldense MSR-1 Fur C9L/M14L/M16V-triple mutant (natural protein)”, the stoichiometry N in series [1] and in series [2] was 2 throughout.

Turning to “Magnetospirillum gryphiswaldense MSR-1 ferric uptake regulator (Fur), wild type (natural protein)”, the stoichiometry N in series [3], in series [4] and in series [5] was 2 in each case.

Turning to “TTAATCGCAACTCATTCGCAATTGC (double strand) [feoAB1 operator (SPR)]”, the Kd (usually a measure of binding affinity in units of concentration) in series [6] was 272 nM; in series [7], 85 nM; in series [8], 977 nM.
